Assay results taken from patent publication US20090060925A1, “Rage Fusion Proteins and Methods of Use” (THE TRUSTEES OF COLUMBIA UNIVERSITY IN THE CITY OF, priority 2004, published 2009).

What was measured:
[1] = test system: S100b/RAGE-induced production of TNF-α in THP-1 cells; experiment: Inhibition of S100b/RAGE-induced production of TNF-α in THP-1 cells; assay type: cell-based; conditions: 10 μg protein, S100b 0.1 mg/ml, 24 hours
Experimental: THP-1 myeloid cells may be cultured in RPMI-1640 media supplemented with 10% FBS and induced to secrete TNF-α via stimulation of RAGE with S100b. When such stimulation occurs in the presence of a RAGE fusion protein, induction of TNF-α by S100b binding to RAGE may be inhibited.
Previous work has shown that the myeloid THP-1 cells may secrete TNF-α in response to RAGE ligands. In this assay, THP-1 cells were cultured in RPMI-1640 media supplemented with 10% FBS using a protocol provided by ATCC. […] The amount of TNF-α secreted by the THP-1 cells was measured 24 hours after the addition of the proteins to the cell culture using a commercially available ELISA kit for TNF-α (R&D Systems, Minneapolis, Minn.).

[2] = test system: amyloid-beta; experiment: Competition of a RAGE ligand with immobilized amyloid-beta for binding to the fusion protein; conditions: RAGE ligand FAC 10 μM
Experimental: The fusion protein of the present invention may also be used to identify compounds having the ability to bind to RAGE.
Known RAGE ligands were coated onto the surface of Maxisorb plates at a concentration of 5 micrograms per well. Plates were incubated at 4° C. overnight. Following ligand incubation, plates were aspirated and a blocking buffer of 1% BSA in 50 mM imidizole buffer (pH 7.2) was added to the plates for 1 hour at room temperature. The plates were then aspirated and/or washed with wash buffer (20 mM Imidizole, 150 mM NaCl, 0.05% Tween-20, 5 mM CaCl2 and 5 mM MgCl2, pH 7.2). […] The fusion protein was added at increasing dilutions of the initial sample. The RAGE fusion protein was allowed to incubate with the immobilized ligand at 37° C. for one hour after which the plate was washed and assayed for binding of the fusion protein. Binding was detected by the addition of an immunodetection complex containing a monoclonal mouse anti-human IgG1 diluted 1:11,000 to a final assay concentration (FAC) of 21 ng/100 μL, a biotinylated goat anti-mouse IgG diluted 1:500, to a FAC of […], and an avidin-linked alkaline phosphatase. […] Binding of the complex to the immobilized fusion protein was quantified by measuring conversion of PNPP to para-nitrophenol (PNP) which was measured spectrophotometrically at 405 nm. […]

[3] = test system: Fc receptor; experiment: Fc receptor activation, TNF-α secretion from THP-1 cells; assay type: cell-based; conditions: well precoated with 10 ug/well heat aggregated protein; 24 hours
From the text: Fc stimulation results in TNF-α secretion.

[4] = test system: animal model of stroke; experiment: Mouse model of stroke (carotid artery ligation and reperfusion, infarct); assay type: in vivo; conditions: Table 2
Experimental: In this model, the middle carotid artery of a mouse was ligated for 1 hour followed by 23 hours of reperfusion at which point the mice were sacrificed and the area of the infarct in the brain was assessed. […] Mice were injected intraperitoneally, 1 hour after the initiation of ischemia. Mice were subjected to one hour of cerebral ischemia followed by 24 hours of reperfusion. To induce ischemia, each mouse was anesthetized and body temperature was maintained at 36-37° C. by external warming. The left common carotid artery (CCA) was exposed through a midline incision in the neck. A microsurgical clip was placed around the origin of the internal carotid artery (ICA). […] After the nylon suture had been in place for 1 hour, the animal was re-anesthetized, rectal temperature was recorded and the suture was removed and the incision closed. Infarct volume was determined by anesthetizing the animals with an intraperitoneal injection of sodium pentobarbital (50 mg/kg) and then removing the brains. […] The infarct area in each section was determined with a computer-assisted image analysis system, consisting of a Power Macintosh computer equipped with a Quick Capture frame grabber card, Hitachi CCD camera mounted on a camera stand. […] The images were captured and the total area of infarct was determined over the sections. […] Summing the infarct volumes of the sections calculated the total infarct volume. […]

B1: TTP-4000: four domain RAGE fusion protein, SEQ ID NO: 32: human RAGE amino acids 1-251 linked to CH2 and CH3 domains of human IgG (protein, listed as Homo sapiens)
chain: MAAGTAVGAWALVLSLWGAVVGAQNITARIGEPLVLKCKGAPKKPPQRLEWKLNTGRTEAWKVLSPQGGGPWDSVARVLPNGSLFLPAVGIQDEGIFRCQAMNRNGKETKSNYRVRVYQIPGKPEIVDSASELTAGVPNKVGTCVSEGSYPAGTLSWHLDGKPLVPNEKGVSVKEQTRRHPETGLFTLQSELMVTPARGGDPRPTFSCSFSPGLPRHRALRTAPIQPRVWEPVPLEEVQLVVEPEGGAVAPPSVFLFPPKPKDTLMISRTPEVTCVVVDVSHEDPEVKFNWYVDGVEVHNAKTKPREEQYNSTYRVVSVLTVLHQDWLNGKEYKCKVSNKALPAPIEKTISKAKGQPREPQVYTLPPSRDELTKNQVSLTCLVKGFYPSDIAVEWESNGQPENNYKTTPPVLDSDGSFFLYSKLTVDKSRWQQGNVFSCSVMHEALHNHYTQKSLSLSPGK
For B1, the “effect on S100b induction of TNF-α, in words” value [1] was “at least as effective in blocking S100b induction of TNF-α as is sRAGE”, the “binding of fusion protein to immobilized amyloid-beta inhibited by the RAGE ligand” value ([2]; fusion protein initial solution diluted 1:10) was “completely inhibited” and the “binding of fusion protein to immobilized amyloid-beta inhibited by the RAGE ligand” value ([2]; fusion protein initial solution diluted 1:30) was “completely inhibited”. For the same molecule, the “TNF secreted by THP-1 cells” value [3] was “less than 2 ng/well” and the “limiting the area of infarct, compared with sRAGE” value [4] was “more efficacious than sRAGE”.
